Results as given in paper PMC11151819.

Target: BIR3 domain of XIAP (human) (UniProt P98170)
Test: SEC

Substance: BIR3 domain of XIAP (from UniProt P98170 241-356) (domain or fragment)
- stoichiometry N: 2
